Paper PMC3003327 (The Journal of Cell Biology, 2010)

Molecular target: the molecule itself
Experiment: AUC

B1: human VASP^1-380aa, unlabeled wild type (untagged hVASP^1-380aa) (natural protein)
chain: GSMSETVICSSRATVMLYDDGNKRWLPAGTGPQAFSRVQIYHNPTANSFRVVGRKMQPDQQVVINCAIVRGVKYNQATPNFHQWRDARQVWGLNFGSKEDAAQFAAGMASALEALEGGGPPPPPALPTWSVPNGPSPEEVEQQKRQQPGPSEHIERRVSNAGGPPAPPAGGPPPPPGPPPPPGPPPPPGLPPSGVPAAAHGAGGGPPPAPPLPAAQGPGGGGAGAPGLAAAIAGAKLRKVSKQEEASGGPTAPKAESGRSGGGGLMEEMNAMLARRRKATQVGEKTPKDESANQEEPEARVPAQSESVRRPWEKNSTTLPRMKSSSSVTTSETQPCTPSSSDYSDLQRVKQELLEEVKKELQKVKEEIIEAFVQELRKRGSP
In the case of B1, the “stoichiometry N” value is reported as 4.
